From publication PMC10786891, “Massively parallel profiling of RNA-targeting CRISPR-Cas13d”

T1: EsCas13d, nuclease-dead (Eubacterium siraeum, UniProt B0MS50, R295A;H300A;R849A;H854A)
T1 sequence: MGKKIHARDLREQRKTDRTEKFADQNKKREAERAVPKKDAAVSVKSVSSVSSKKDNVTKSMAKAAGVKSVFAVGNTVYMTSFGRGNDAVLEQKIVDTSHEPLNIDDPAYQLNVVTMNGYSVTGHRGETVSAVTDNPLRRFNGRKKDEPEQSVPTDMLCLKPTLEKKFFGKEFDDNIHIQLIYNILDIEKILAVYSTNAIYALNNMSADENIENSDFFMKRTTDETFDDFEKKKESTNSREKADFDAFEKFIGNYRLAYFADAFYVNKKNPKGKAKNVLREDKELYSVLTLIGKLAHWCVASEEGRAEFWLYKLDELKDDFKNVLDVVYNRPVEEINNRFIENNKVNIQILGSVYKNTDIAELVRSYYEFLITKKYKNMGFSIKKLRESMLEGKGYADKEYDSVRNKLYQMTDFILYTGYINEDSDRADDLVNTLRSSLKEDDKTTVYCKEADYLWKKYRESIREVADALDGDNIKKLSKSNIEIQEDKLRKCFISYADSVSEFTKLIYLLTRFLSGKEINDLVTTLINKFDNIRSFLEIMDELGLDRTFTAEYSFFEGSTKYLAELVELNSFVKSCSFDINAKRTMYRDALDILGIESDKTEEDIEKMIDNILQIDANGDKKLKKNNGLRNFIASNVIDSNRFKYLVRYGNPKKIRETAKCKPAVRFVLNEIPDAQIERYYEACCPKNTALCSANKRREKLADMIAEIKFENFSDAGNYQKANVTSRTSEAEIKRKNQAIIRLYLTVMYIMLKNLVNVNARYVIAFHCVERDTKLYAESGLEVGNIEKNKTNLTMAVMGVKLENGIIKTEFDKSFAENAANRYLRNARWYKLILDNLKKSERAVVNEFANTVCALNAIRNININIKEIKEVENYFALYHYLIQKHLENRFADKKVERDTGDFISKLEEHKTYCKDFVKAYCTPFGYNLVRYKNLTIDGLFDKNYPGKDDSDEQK


Biological target: T1, EsCas13d, nuclease-dead
Assay: crRNA (strand 1, pre-loaded); Mg2+; 40 mM Tris-HCl pH 7.5, 150 mM NaCl, 6 mM MgCl2, 1 mM DTT, 0.1% Tween-20, 0.2 mg/ml BSA; 25 C; 10 min per concentration, then washed
Conditions: tags: His6-TwinStrep-SUMO cleaved; N-terminal SNAP kept (SNAP-Surface 488); label: 3' end held by stalled T7 RNA polymerase

Binder | Kd
target 1 insU 3' of 21,insG 3' of 1 (mixed) RNA 1: CACCCGUGCAAAAAUGCAGGGGUCUAAAACUGAGCGGAUAACCUCUCUAUGG RNA 2: GGGAAUGGAUCCACAUCUACGAAUUCGUACCUAUAGAGAGGUUAUCCGCUCAGCCGAGAUCGGAAGAGCACACGU | 24.9 ± 2.3 nM
target 1 U3A,U8G (mixed) RNA 1: CACCCGUGCAAAAAUGCAGGGGUCUAAAACUGAGCGGAUAACCUCUCUAUGG RNA 2: GGGAAUGGAUCCACAUCUACGAAUUCGUACCAUAGAGAGGUUAGCCGCACACCGAGAUCGGAAGAGCACACGU | 11.9 ± 0.5 nM
target 3 insC 3' of 8,insU 3' of 3 (mixed) RNA 1: CACCCGUGCAAAAUUGCAGGGGUCUAAAACGACCUGAAUAUUUCAGAUCAAA RNA 2: GGGAAUGGAUCCACAUCUACGAAUUCGUUUUUGAUCUGAAAUAUCUCAGGUUCUGCAGAUCGGAAGAGCACACGU | 59 ± 25.5 nM
target 3 C1A,U10G (mixed) RNA 1: CACCCGUGCAAAAUUGCAGGGGUCUAAAACGACCUGAAUAUUUCAGAUCAAA RNA 2: GGGAAUGGAUCCACAUCUACGAAUUCGUUUUUGAUCUGAAAGAUUCAGGUAUGCAGAUCGGAAGAGCACACGU | ~90.5 nM
target 3 insU 3' of 11,insU 3' of 4 (mixed) RNA 1: CACCCGUGCAAAAUUGCAGGGGUCUAAAACGACCUGAAUAUUUCAGAUCAAA RNA 2: GGGAAUGGAUCCACAUCUACGAAUUCGUUUUUGAUCUGAAAUUAUUCAGUGUCUGCAGAUCGGAAGAGCACACGU | 23.6 ± 4.15 nM
target 3 insU 3' of 5,insC 3' of 4 (mixed) RNA 1: CACCCGUGCAAAAUUGCAGGGGUCUAAAACGACCUGAAUAUUUCAGAUCAAA RNA 2: GGGAAUGGAUCCACAUCUACGAAUUCGUUUUUGAUCUGAAAUAUUCAUGCGUCUGCAGAUCGGAAGAGCACACGU | 6.45 ± 0.65 nM
target 3 A5G,U21A (mixed) RNA 1: CACCCGUGCAAAAUUGCAGGGGUCUAAAACGACCUGAAUAUUUCAGAUCAAA RNA 2: GGGAAUGGAUCCACAUCUACGAAUUCGUUUAUGAUCUGAAAUAUUCGGGUCUGCAGAUCGGAAGAGCACACGU | 98 ± 44.5 nM
target 3 insA 3' of 3,insA 3' of 3 (mixed) RNA 1: CACCCGUGCAAAAUUGCAGGGGUCUAAAACGACCUGAAUAUUUCAGAUCAAA RNA 2: GGGAAUGGAUCCACAUCUACGAAUUCGUUUUUGAUCUGAAAUAUUCAGGAAUCUGCAGAUCGGAAGAGCACACGU | 15.5 ± 1.65 nM
target 3 insA 3' of 22,insA 3' of 3 (mixed) RNA 1: CACCCGUGCAAAAUUGCAGGGGUCUAAAACGACCUGAAUAUUUCAGAUCAAA RNA 2: GGGAAUGGAUCCACAUCUACGAAUUCGUUUAUUGAUCUGAAAUAUUCAGGAUCUGCAGAUCGGAAGAGCACACGU | 22.2 ± 4.4 nM
target 3 U2A,U21C (mixed) RNA 1: CACCCGUGCAAAAUUGCAGGGGUCUAAAACGACCUGAAUAUUUCAGAUCAAA RNA 2: GGGAAUGGAUCCACAUCUACGAAUUCGUUUCUGAUCUGAAAUAUUCAGGACUGCAGAUCGGAAGAGCACACGU | 39.5 ± 11 nM
target 3 insA 3' of 21,insA 3' of 3 (mixed) RNA 1: CACCCGUGCAAAAUUGCAGGGGUCUAAAACGACCUGAAUAUUUCAGAUCAAA RNA 2: GGGAAUGGAUCCACAUCUACGAAUUCGUUUUAUGAUCUGAAAUAUUCAGGAUCUGCAGAUCGGAAGAGCACACGU | ~69 nM
target 3 insA 3' of 7,insU 3' of 6 (mixed) RNA 1: CACCCGUGCAAAAUUGCAGGGGUCUAAAACGACCUGAAUAUUUCAGAUCAAA RNA 2: GGGAAUGGAUCCACAUCUACGAAUUCGUUUUUGAUCUGAAAUAUUACUAGGUCUGCAGAUCGGAAGAGCACACGU | 17.9 ± 1.2 nM
target 3 insA 3' of 2,insA 3' of 2 (mixed) RNA 1: CACCCGUGCAAAAUUGCAGGGGUCUAAAACGACCUGAAUAUUUCAGAUCAAA RNA 2: GGGAAUGGAUCCACAUCUACGAAUUCGUUUUUGAUCUGAAAUAUUCAGGUAACUGCAGAUCGGAAGAGCACACGU | 30.4 ± 3.8 nM
target 3 insA 3' of 15,insC 3' of 2 (mixed) RNA 1: CACCCGUGCAAAAUUGCAGGGGUCUAAAACGACCUGAAUAUUUCAGAUCAAA RNA 2: GGGAAUGGAUCCACAUCUACGAAUUCGUUUUUGAUCUAGAAAUAUUCAGGUCCUGCAGAUCGGAAGAGCACACGU | ~82 nM
target 3 insC 3' of 9,insU 3' of 6 (mixed) RNA 1: CACCCGUGCAAAAUUGCAGGGGUCUAAAACGACCUGAAUAUUUCAGAUCAAA RNA 2: GGGAAUGGAUCCACAUCUACGAAUUCGUUUUUGAUCUGAAAUACUUCUAGGUCUGCAGAUCGGAAGAGCACACGU | 82 ± 14.5 nM
target 3 G3C,U22A (mixed) RNA 1: CACCCGUGCAAAAUUGCAGGGGUCUAAAACGACCUGAAUAUUUCAGAUCAAA RNA 2: GGGAAUGGAUCCACAUCUACGAAUUCGUUAUUGAUCUGAAAUAUUCAGCUCUGCAGAUCGGAAGAGCACACGU | 16.5 ± 1.4 nM
target 3 A5G,U8C (mixed) RNA 1: CACCCGUGCAAAAUUGCAGGGGUCUAAAACGACCUGAAUAUUUCAGAUCAAA RNA 2: GGGAAUGGAUCCACAUCUACGAAUUCGUUUUUGAUCUGAAAUACUCGGGUCUGCAGAUCGGAAGAGCACACGU | 86.5 ± 13 nM
target 3 insC 3' of 22,insC 3' of 4 (mixed) RNA 1: CACCCGUGCAAAAUUGCAGGGGUCUAAAACGACCUGAAUAUUUCAGAUCAAA RNA 2: GGGAAUGGAUCCACAUCUACGAAUUCGUUUCUUGAUCUGAAAUAUUCAGCGUCUGCAGAUCGGAAGAGCACACGU | 39 ± 12 nM
target 3 C6U,U22C (mixed) RNA 1: CACCCGUGCAAAAUUGCAGGGGUCUAAAACGACCUGAAUAUUUCAGAUCAAA RNA 2: GGGAAUGGAUCCACAUCUACGAAUUCGUUCUUGAUCUGAAAUAUUUAGGUCUGCAGAUCGGAAGAGCACACGU | 14.5 ± 1.85 nM
target 3 insU 3' of 4,insC 3' of 3 (mixed) RNA 1: CACCCGUGCAAAAUUGCAGGGGUCUAAAACGACCUGAAUAUUUCAGAUCAAA RNA 2: GGGAAUGGAUCCACAUCUACGAAUUCGUUUUUGAUCUGAAAUAUUCAGUGCUCUGCAGAUCGGAAGAGCACACGU | 17.4 ± 1.7 nM
target 3 U2A,A12C (mixed) RNA 1: CACCCGUGCAAAAUUGCAGGGGUCUAAAACGACCUGAAUAUUUCAGAUCAAA RNA 2: GGGAAUGGAUCCACAUCUACGAAUUCGUUUUUGAUCUGACAUAUUCAGGACUGCAGAUCGGAAGAGCACACGU | 33 ± 5.5 nM
target 3 insC 3' of 11,insG 3' of 5 (mixed) RNA 1: CACCCGUGCAAAAUUGCAGGGGUCUAAAACGACCUGAAUAUUUCAGAUCAAA RNA 2: GGGAAUGGAUCCACAUCUACGAAUUCGUUUUUGAUCUGAAACUAUUCAGGGUCUGCAGAUCGGAAGAGCACACGU | 86.5 ± 29 nM
target 3 U2G,C6G (mixed) RNA 1: CACCCGUGCAAAAUUGCAGGGGUCUAAAACGACCUGAAUAUUUCAGAUCAAA RNA 2: GGGAAUGGAUCCACAUCUACGAAUUCGUUUUUGAUCUGAAAUAUUGAGGGCUGCAGAUCGGAAGAGCACACGU | 21.8 ± 2.7 nM
target 3 insC 3' of 11,insC 3' of 2 (mixed) RNA 1: CACCCGUGCAAAAUUGCAGGGGUCUAAAACGACCUGAAUAUUUCAGAUCAAA RNA 2: GGGAAUGGAUCCACAUCUACGAAUUCGUUUUUGAUCUGAAACUAUUCAGGUCCUGCAGAUCGGAAGAGCACACGU | 67 ± 10 nM
